Data from US20260232828A1, “LIGAND-CYTOTOXICITY DRUG CONJUGATES AND PHARMACEUTICAL USES THEREOF” (HANSOH BIO LLC, priority 2023, published 2026).
Positions count from the first letter of the chain named.

B1: 15A4 (hybridoma clone supernatant) (antibody, V domains shown)
VH: QVQLVESGGGVVQPGRSLRLSCAASGFNFSSYGMHWVRQAPGKGLEWVAFVWYDGSNQNYADSVKGRFTISRDNSNNTLYLQMNSLRAEDTAVYYCARDRYSSGWDVFDYWGQGTLVTVSS
VL: DIQMTQSPSSVSASVGDRVTITCRASQGISSWLAWYQQKPGKAPKLLIFAASSLQSGVPSRFSGSGSGTGFTLTISSLQPEDFATYYCQQAKSFPPTFGQGTKVEIK
notes: Hybridoma supernatant
B2: 1H10 (hybridoma clone supernatant) (antibody, V domains shown)
VH: B1 VH with A23V, N28T, A49T, V51I, Q58K, N76K, Y80N, A88V
VL: B1 VL with G28D, K39Q, L47Q, F49Y, G70D
notes: Hybridoma supernatant from mice encoding human heavy and kappa variable regions
B3: 13C7 (hybridoma clone supernatant) (antibody, V domains shown)
VH: QITLKESGPTLVKPTQTLTLTCTFSGFSLSTSGVGVGWIRQPPGKALEWLALIYWNDDKRYRPSLKNRLTITKDTSKNQVVLTMTNMDPVDTATYYCTHYGVTAPFYNWFDPWGQGTLVTVSS
VL: DIQMTQSPSSLSASVGDRVTITCRASQSITSYLNWYQQKPGKAPKLLIYAASSLQSGVPSRFSGSGSGTDFTLTISSLQPEDFATYYCQRSYSTLTFGGGTKVEIK
notes: Hybridoma supernatant
B4: 19C7 (hybridoma clone supernatant) (antibody, V domains shown)
VH: B3 VH with F27I, S32G, A51S, R62S, N67S, T75S, T98A, Y100S, V102L, T103A
VL: B3 VL with T30S, S31N, Q38L, K42N, Y49F, Y87F
notes: Hybridoma supernatant
B5: 4F9 (hybridoma clone supernatant) (antibody, V domains shown)
VH: QVQLQESGPGLVKPSGTLSLTCAVSGGSISSSNWWSWVRQPPGKGLEWIGEIYHSGSTSYNPSLKSRVTISVDKSKNQFSLKLSSVTAADTAVYYCARNDWGFPLDCWGQGTLVTVSS
VL: DIQMTQSPSSLSASVGDRVTITCRASQSISSYLNWYQQKPGKAPKLLIYAASSLQSGVPSRFSGSGSGTHFTLTISSLQPEDFATYYCQQSHNIPITFGQGTRLEIK
notes: Hybridoma supernatant
B6: 10E11 (hybridoma clone supernatant) (antibody, V domains shown)
VH: EVQLVQSGTEVKKPGESLKISCKDSGYRFSSYWIGWVRQMPGKGLEWMGIIYPGDSDTRYSPSFQGQVTISADKSISTAYLQWRSLKASDTAMYYCARRGWVNYFDYWGQGTLVTVSS
VL: B1 VL with S31N, A34G, F49Y, G70D, K92N, P96L, Q100G
notes: Hybridoma supernatant
B7: 17F3 (hybridoma clone supernatant) (antibody, V domains shown)
VH: EVQLVESGGGLVKSGGSLRLSCAASGFTFSSYSLKWVRQAPGKGLEWVSSISSSSGYIYYADSVKGRFTISRDNAKNSLYLQMNSLRAEDTAMYYCARAVSTIAARPGYYYYYMDVWGKGTLVTVSS
VL: DIQMTQSPSSVSASIGDRVTITCRASQDISTWFAWYQQKPGKAPKLLIYAASTLRSGVPSRFSGSGSGTDFTLTINSLQPEDFATYYCQQANSFPLTFGGGTKVEIK
notes: Hybridoma supernatant
B8: 14B12 (hybridoma clone supernatant) (antibody, V domains shown)
VH: QVQLQESGPGLVKPSETLSLTCTVSGGSINTYYRSWIRQPPGKGLEWIGYIYYSGNTNYNPSLKSRVTISADTSKNQFSLNLISVTAADTAMYYCARAQYGEEAFDIWGQGTLVTVSS
VL: DIQMTQSPSSLSASVGDRVTITCRASQSITTYLNWYQQKPGKAPQLLIFAASRLQTGVPSRFSGSGSGTDFTLTISSLLPGDFATYYCQQSYNTPPTFGGGTKVEIK
notes: Hybridoma supernatant
B9: 2F9 (hybridoma clone supernatant) (antibody, V domains shown)
VH: EVQLVESGGGVVRPGGSLRLSCAASGFTFDDYGMSWVRQAPGKGLEWVSGLSWNGGNTYYADSVKGRFTISRDNAKNSLYLQMNSLRAEDTALYYCARGSRYNWNYDAFDIWGQGTLVTVSS
VL: DIQMTQSPSSLSASIGDRVTITCRASQGIRNALGWYQQKPGKAPKRLIYAASNLQSGVPSRFSGSGSGTEFTLTISSLQPEDFATYYCLQHNSYPFTFGPGTKVEIK
notes: Hybridoma supernatant
B10: 9E2 (hybridoma clone supernatant) (antibody, V domains shown)
VH: B9 VH with D31N, L51I, S52N, N57S, K65R, N105S
VL: B9 VL with I15V, I29V, N53S
notes: Hybridoma supernatant
B11: 15A4 anti-CDH17 recombinant antibody (human IgG1) (antibody, V domains shown)
VH: B1 VH
VL: DIQMTQSPSSVSASVGDRVTITCRASQGISSWLAWYQQKPGKAPKLLIFAASSLQSGVPSRFSGSGSGTGFTLTISSLQPEDFATYYCQQAKSFPPTFGQGTKVEIKR
B12: 4F9 anti-CDH17 recombinant antibody (human IgG1) (antibody, V domains shown)
VH: B5 VH
VL: DIQMTQSPSSLSASVGDRVTITCRASQSISSYLNWYQQKPGKAPKLLIYAASSLQSGVPSRFSGSGSGTHFTLTISSLQPEDFATYYCQQSHNIPITFGQGTRLEIKR

The binders below were run against T1, BSA (UniProt P02769 25-607) (assay: ELISA, plate coated with BSA, hybridoma supernatant).
T1 construct: Control coating protein of the ELISA
Method: (§1) ELISA was performed using the DuoSet ELISA Ancillary Kit (R&D System, DY008). ELISA plates were coated with 1 μg/ml of human CDH17 His Tag (Sino biological, catalog number 11360-H08H), or BSA overnight. Excess unbound proteins were washed off by washing the plates three times with the wash buffer before blocking for 1 hour at room temperature. 100 μl CDH17 hybridoma supernatant was added in each well and incubated for 1 hour at room temperature. Excess unbound antibodies were washed off and 100 μl of 1:30000 diluted secondary antibody Goat anti-mouse IgG Fc-HRP (ab5870) was added to each well for another 1 hour. Plates were washed before the addition 50 μL of […] (color A and color B) according to manufacturer's protocol. The reactions were stopped using 25 μL of stop solution. Optical density at 450 nm of samples was measured by a microplate reader (PerkinElmer).

T1 sequence (P02769 25-607 limits assumed): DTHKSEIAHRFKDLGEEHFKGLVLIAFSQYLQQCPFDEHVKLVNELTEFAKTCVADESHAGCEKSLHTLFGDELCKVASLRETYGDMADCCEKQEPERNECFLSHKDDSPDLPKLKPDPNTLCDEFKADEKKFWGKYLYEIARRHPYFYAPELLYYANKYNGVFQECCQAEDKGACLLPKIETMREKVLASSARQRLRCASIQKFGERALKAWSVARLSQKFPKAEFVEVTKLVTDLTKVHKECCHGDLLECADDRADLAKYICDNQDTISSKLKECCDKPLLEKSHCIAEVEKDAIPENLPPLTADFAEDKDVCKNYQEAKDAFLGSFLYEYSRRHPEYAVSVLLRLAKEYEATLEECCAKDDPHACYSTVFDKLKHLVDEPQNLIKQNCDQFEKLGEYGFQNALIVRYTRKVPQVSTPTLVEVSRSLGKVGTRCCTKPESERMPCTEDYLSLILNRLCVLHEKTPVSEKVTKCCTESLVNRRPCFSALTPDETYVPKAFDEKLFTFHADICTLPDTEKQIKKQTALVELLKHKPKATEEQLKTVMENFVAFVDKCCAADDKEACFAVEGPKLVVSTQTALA

| OD450 [OD450] | Binder |
| --- | --- |
| 0.0431 | B1 |
| 0.0399 | B2 |
| 0.0432 | B3 |
| 0.0468 | B4 |
| 0.051 | B5 |
| 0.0475 | B6 |
| 0.0425 | B7 |
| 0.041 | B8 |
| 0.0718 | B9 |
| 0.0429 | B10 |

What follows are binders tested against T2, human CDH17 His Tag (Sino biological, catalog number 11360-H08H) (human, UniProt Q12864 23-787) (assay: ELISA, plate coated with 1 µg/ml human CDH17 His Tag, hybridoma supernatant).
T2 construct: Bought recombinant protein; also called hCDH17; human CDH17 protein; not shown: His tag
Method: as §1

| OD450 [OD450] | Binder |
| --- | --- |
| 1.6 | B1 |
| 1.79 | B2 |
| 1.62 | B3 |
| 1.84 | B4 |
| 1.52 | B5 |
| 1.48 | B6 |
| 1.66 | B7 |
| 1.88 | B8 |
| 1.72 | B9 |
| 1.48 | B10 |

What follows are binders tested against T3, human CDH17 as originally expressed in cells (cell surface CDH17 on AsPC1, GP2d and other cancer cell lines) (human, UniProt Q12864 23-832) (assay: flow cytometry titration of recombinant human IgG1 on CDH17-positive AsPC1 cells, 0.001-200 nM, PE anti-human Fc, MFI).
T3 construct: whole, on cells; Endogenous CDH17 on human cancer cell lines; AsPC1 and GP2d are named CDH17 positive; also called CDH17 positive AsPC1 cells; GP2d cells
Method: (§2) To determine the binding of recombinant antibody to cell surface CDH17 receptors, cells were first harvested and resuspended in cell staining buffer (BioLegend, Cat #420201) at 1.3-1.5×10⁶ cells/mL. Then, the cells were treated with human Fc receptor blocking reagent (BioLegend, Cat #422302) on the ice for 10 min. The resulting cell suspension was aliquoted into 50 μL aliquots. […] The cells were incubated on the ice for 1 hour and then washed with cell staining buffer twice. 50 μL of secondary antibody (PE conjugated goat anti-human Fc, eBioscience™, 1:250 dilution) was added to each sample to resuspend the cells. The cells were incubated on the ice for another 20 min. Cells were subsequently washed twice with cell staining buffer and resuspended in 4% PFA to fix the cells. The samples were analyzed using iQue3 to measure the median fluorescence intensity using corresponding channels.

| EC50 (read off the curve) [nM] | Binder |
| --- | --- |
| ~3 | B11 |
| ~2 | B12 |

The binders below were run against T1, BSA (assay: ELISA, plate coated with 1 µg/ml BSA, hybridoma supernatant).
Method: as §1

| binding result | Binder |
| --- | --- |
| no binding | B1 |
| no binding | B2 |
| no binding | B3 |
| no binding | B4 |
| no binding | B5 |
| no binding | B6 |
| no binding | B7 |
| no binding | B8 |
| no binding | B9 |
| no binding | B10 |

The binders below were run against T3, human CDH17 as originally expressed in … (assay: flow cytometry titration on CDH17 positive AsPC1 cells).
Method: as §2

| Kd [nM] | Binder |
| --- | --- |
| 2.32 | B11 |
| 1.69 | B12 |

What follows are binders tested against T3, human CDH17 as originally expressed in … (assay: cell-based or functional assay).

| Binder | IC50 of indirect killing assay to evaluate the internalization in AsPC1 cells [nM] |
| --- | --- |
| B11 | 1.99 |
| B12 | 0.29 |
